The values below are quoted from earlier work in US6406710B1, “Protein occlusion for delivery of small molecules” (priority 1998, dated 2002).

For this data set the following is noted: relatively high doses, human clinical trials.

B1: BDNF: Brain Derived Neurotrophic Factor, a neurotrophin proposed as carrier protein (protein, UniProt P23560 19-247, looked up)
Neurotrophic factor BDNF …: APMKEANIRGQGGLAYPGVRTHGTLESVNGPKAGSRGLTSLADTFEHVIEELLDEDQKVRPNEENNKDADLYTSRVMLSSQVPLEPPLLFLLEEYKNYLDAANMSMRVRRHSDPARRGELSVCDSISEWVTAADKKTAVDMSGGTVTVLEKVPVSKGQLKQYFYETKCNPMGYTKEGCRGIDKRHWNSQCRTTQSYVRALTMDSKKRIGWRFIRIDTSCVCTLTIKRGR
Regarding B1, the tolerability result was “well tolerated with insignificant adverse effects”.
